Assay results reported in a protein production outcome set (Wang et al. 2014).

assay: label from the status in PepcDB records

Sequence | protein production
TVDWASMKWARPYLNTNSLGANPKQPGDVAKVGDLVRLLRQDDGSLKFSQIPVAQSALVSLDPQNGAIRALVGGFAFEQSNYNRAMQAKRQPGSSFKPFIYSAALDNGYTASSLVNDAPIVFVDEYLDKVWRPKNDTNTFLGPIRLREALYKSRNLVSIRLLQALGVDSTIDYITRFGFAKQDLPRNLSLALGTATLTPMEIATGWATFANGGYKVSPYLIQTIENRDGQTLFVANPPSVPVNDVNTAPNTSTFAVHDSPSVVASPPGSPAQPQAPAVAERIVDGRTTYILNSMLQDVIKRGTGRRALSMNRPDIAGKTGTTNDSKDAWFSGYNADYVTTVWSGFDQPESLGRHEFGGTVSLPIWMDYMSAALKDKPPHQQ | failed
TVEEVIEETPEKSELELANERADEFENKYLRAHAEMQNIQRRSSEERQQLQRYRSQDLAKAILPSLDNLERALAVEGLTDDVKKGLEMTRDSLIQALKEEG | not failed
TVHKQDGKVLEIELSSLKEALSFVSLIDGYYRLTADAHHYLCKEVAPPAVLENIHSNCHGPISMDFAISKLKKAGNQTGLYVLRCSPKDFNKYFLTFAVERENVIEYKHCLITKNENGEYNLSGTKRNFSNLKDLLNCYQMETVRSDSIIFQFTKCCPPKPKDKSNLLVFRTNGISDVQISPTLQRHNNVNQMVFHKIRNEDLIFNESLGQGTFTKIFKGVRREVGDYGQLHKTEVLLKVLDKAHRNYSESFFEAASMMSQLSHKHLVLNYGVCVCGEENILVQEFVKFGSLDTYLKKNKNSINILWKLGVAKQLAWAMHFLEEKSLIHGNVCAKNILLIREEDRRTGNPPFIKLSDPGISITVLPKDILQERIPWVPPECIENPKNLNLATDKWSFGTTLWEICSGGDKPLSALDSQRKLQFYEDKHQLPAPKWTELANLINNCMDYEPDFRPAFRAVIRDLNSLFTPDYELLTENDMLPNMRIGALGFSGAFEDRDPTQFEERHLKFLQQLGKGNFGSVEMCRYDPLQDNTGEVVAVKKLQHSTEEHLRDFEREIEILKSLQHDNIVKYKGVCYSAGRRNLRLIMEYLPYGSLRDYLQKHKERIDHKKLLQYTSQICKGMEYLGTKRYIHRDLATRNILVENENRVKIGDFGLTKVLPQDKEYYKVKEPGESPIFWYAPESLTESKFSVASDVWSFGVVLYELFTYIEKSKSPPVEFMRMIGNDKQGQMIVFHLIELLKSNGRLPRPEGCPDEIYVIMTECWNNNVSQRPSFRDLSLRVDQIRDSIAA | failed
TYIDGSIKRKHLVQNNQPVTLYWLRFQKSIVDTNKQDLQQSLQINTGQEPKTQALAQQILKQSDADPARYVKNILDWYRQQDFIYTLSPEQLNGNRTDQFLFQTRNGFCEHYASSFVLLMRYAGIPARVVIGYQGGQLAPDAQSLEVRQLDAHAWAEVLIDDSWHRIDPTAAIAPARLEHGMQYYLQEDRRIWGSEQHLFWKQQNFHLIQSFRVWSDYLQYQWQSKVIGYNVDQQKSFFSKLGIRSVYSAIVIMLLSICGLVIVYGIYVAYKRRGQSSFIEYQISRFQRKMSPSMKKQKSETFKVW | failed
VAEVPEEHKSKDGNTTVGYVIFFYTYSTWKGRTVYMEDLYVMPEFRGNGIGKALLGAVAKEAKDQLCSRLQFSVLDWNKPSLDFYMAKGAEDLTAKEGWHFLRFHGMALDNLAQEAP | failed
VARCQVPDCEADISELKGYHKRHRVCLRCATASFVVLDGENKRYCQQCGKFHLLPDFDEGKRSCRRKLERHNNRRKRKPVDKGGVA | not failed
VDEPESMVNLAFVKNDSYEKGPDSVVVHVYVKEICRDTSRVLFREQDFTLIFQTRDGNFLRLHPGCGPHTTFRWQVKLRNLIEPEQCTFCFTASRIDICLRKRQSQRWGGLEAPAARVGGA | not failed
VDMDVTTAKLVVGFRGYLTLTQHSLLTYRIALKLFLSMLIGWTSKIYHTLYEDGKIDDSFDVDVEIHHNFQFVLISLDTPEPIAMSNYIRQKLATIKISKEFTNEHLNLLKKEMYGDFIQSLDSIEHLTHQFSLYLSDSDKETYFDIPKIIERLTLKDVVTIGKAFFEKADASDFTVFPK | failed
VDMLLVGAGIMSATLAVLLKELDPNLKMEVVELQESGAIESSNPWNNAGTGHAGLCELNYTPQSADGSIDIKKAVGINTMFEVSKQFWSHLVAKGTFGSPKTFINPVPHLSFVRGSEGIAYLKKRFESLTKHHAFETMVYSEDKATLAEWMPLMMPGRPADEAIAATRVEGGTDVNFGALTNQLLQHLAQQPGAQIRYNQKVTHLRRADNGWRVTVKDTRNGGDREIQARFVFLGAGGGALPLLQLSGIPEGKGFGGFPVSGQWLRCDNPEIVKQHQAKVYSQAEVGSPPMSVPHLDTRVVDGKKSLLFGPYAGFSTKFLRHGSFLDLPLSVRPGNILPMLSVARDNMDLTRYLIGQVMQSPEQRLEALRKFYPEARAEDWRLEVAGQRVQIIKKDPKKGGILQFGTELVAAHDGSIAALLGASPGASVTVSIMLGLIERCFPEQARSPEWSAKLKEIFPAREKELESDAELYRSVSSRCSEVLELTAKNDVQAPVNAE | failed
VDVENPILITSFPGIGLVGTIATAHYIMELKLESIGIVDSRLLPPVASLYEGVILPPVRVYQSADLGFVLIHSDVPIIPQAAIDMSKKIVQFAAEINARRVYSFAGVATFEDKKRVFAAATSKELLEEVKDHAEIFKTGTISGIAGSIMNECVAAKMPGIVLLGETLGFNPDPRAAASLIEAVNKIMNWNVSVEKLLKEAEMIEAQMQKLAEQARMQEERKEEFPMYG | failed
VEGRTVTYGQQNGTARTGYLAAPADVDSVRSARGGDALPGIVVIHEWWGLNDNVRAATRRLAGEGYRALAVDLYGGAVAETPDSAQALMGQAMREPSRLVENVRDGRAYLSSEADAPRTALLGWCFGGGMTYRTLAEEASAFDAAVAYYGTPDPLAGEALQALETPILAHFGTQDQAVPIDAARKFRDRMEDAGTSLAYHEYDAGHAFANPSGESYEPAAAEQAWTRTTDFLQTHL | failed
VEIRTGEFEDVAGITDIFNFYIEHTNARFEEFPFTLENREEWFSQFSRTTKYQIYVAVENGVLQGFACSQKYRAIPAFDDTVEVSVYLAQEAKGKGLGSKLYTQLFSSIRAYGVHRILSGVALPNDASVALHKRFGFREVGIFNEYAKKHGQYISSVWLEKALNVESAL | not failed
VEPSEENSKDCVVCQNGTVNWVLLPCRHTCLCDGCVKYFQQCPMCRQFVQESFAL | not failed
VGSVLEIKDPENLKNLGSLIGEEIAKLHQALNSVNSNNELVKRELYKLVYEWALPNLEKNEHVDQDVVRTMNQIHSDFKKTITSLRKQIIHRDMHLSNVIFKDNEFQGFIDFELLERNVRVFDLCYCCTSILSELHSDEELRGKWQHIISKIFEGYNKQSILTREELQAIWYVMLSIQVIFITYFVQLPDLLKLNEEMFF | failed
VHCLFVGAGSIAAEYAAELADSPLSLAGVCDLEEDRATALAAAHDCPAFTDLDTALSAVDAPLVVNLTNHAAHAPVTRTALEAGRHVYSQKPLALDEAAAAELLALAQDRNLALGCAPGTPDAPSQRRAGQMLADGRMGPVQLGYAHAHVGRV | failed
VIKFSSEDCGTCHKMSHYDANVAEELGAEFVSVMLQDTEAYRKYRKVLLKQYPNKEGMGWPTYLLVTDPEGDFTIHGELKGGMPKGEFRTRLGALLA | failed
VKNGNDTRMTLLNNWESTYFDFDENKLIGLMDEATKLGVDMFLLDDGWFANKYPRSSDHQGLGDWEETADKLPNGVGRLVEEAQKKGIKFGIWIEPEMVNPKSELYEKHKDWVIHLPNRDEYYFRNQMVLDLSNPKVQDHVFGVVDNLMTKYPGIAFFKWDCNSPITNIYSVYLKDKQSHLYVDYVRGLYKVLDRIKAKYPNLPMMLCAGGGGRSDYEALKYFTEFWPSDNTDPIERLFIQWGYSQIFPSKTLCAHVTTWNRGTSIKFRTDVAMMCKLGFDIKLEDMNQNEHLYCDQAVKNYNRLKPVILEG | failed
VKSKAKKTVDAHSDEYKIRRERNNIAVRKSRDKAKMRNLETQHKVLELTAENERLQKKVEQLSRELSTLRNLFKQLPE | not failed
VKTPGTRYVTHKQLDEKLKNFVTKTEFKEFQTVVMESFAVQNQNIDAQGEQIKELQVEQKAQGKTLQLILEALQGINKRLDNLES | not failed
VKTWPAPTAPTPVRATVTVPGSKSQTNRALVLAALAAAQGRGASTISGALRSRDTELMLDALQTLGLRVDGVGSELTVSGRIEPGPGARVDCGLAGTVLRFVPPLAALGSVPVTFDGDQQARGRPIAPLLDALRELGVAVDGTGLPFRVRGNGSLAGGTVAIDASASSQFVSGLLLSAASFTDGLTVQHTGSSLPSAPHIAMTAAMLRQAGVDIDDSTPNRWQVRPGPVAARRWDIEPDLTNAVAFLSAAVVSGGTVRITGWPRVSVQPADHILAILRQLNAVVIHADSSLEVRGPTGYDGFDVDLRAVGELTPSVAALAALASPGSVSRLSGIAHLRGHETDRLAALSTEINRLGGTCRETPDGLVITATPLRPGIWRAYADHRMAMAGAIIGLRVAGVEVDDIAATTKTLPEFPRLWAEMVGPGQGWGYPQPRSGQRARRATGQGSGG | not failed
VLASILLSQAAYESNYGSSLLSVKYHNIYSLPARPGQEHIYLKDNVYSKGKWQYQKVDFAVFRDWSSSMSSYLEELRQGRWGESTYKEVAGTTSYKVAAEKLQAAGFNSDPDYTKHLISIIETYNL | failed
VPLEARMKQFKDMLLERGVSAFSTWEKELHKIVFDPRYLLLNPKERKQVFDQYV | failed
VPPDTLHSLPKSQVKRQEVISELLVTEAAHVRMLRVLHDLFFQPMAECLFFPLEELQNIFPSLDELIEVHSLFLDRLMKRRQESGYLIEEIGDVLLARFDGAEGSWFQKISSRFCSRQSFALEQLKAKQRKDPRFCAFVQEAESRPRCRRLQLKDMIPTEMQRLTKYPLLLQSIGQNTEEPTEREKVELAAECCREILHHVNQAVRDMEDLLRLKDYQRRLDLSHLRQSSDPMLSEFKNLDITKKKLVHEGPLTWRVTKDKAVEVHV | failed
VSERKAMQKRLTRRERRFRMMFEGHSAPMLLIDEETGAIEQANAAAVEFYGYERDILMSMSIQDINQLPAEEVARERREAAEDGDEFLFEHELASGAVRTVRVLSAPIPNLDRAGTLLFSVIHD | failed
VSGFQRLQKPVVSQPDFRRQPVSETMQVYLKQAADPGRDVGLYWMATDFENRRFPGKVSPSGFQKLYRQWRNQTGWDAYVQSCRAIWNDVKYFPIPQSLDDTEDKISYVDSWMFERNYGGKRGHEGTDIMAEKNTPGYYPVVSMTDGVVTEKGWLEKGGWRIGITAPTGAYFYYAHLDSYAELEKGDPVKAGDLLGYMGDSGYGEEGTTGEFPVHLHLGIYLKEGTEEISVNPYPVLRYAENARIKCVYSR | not failed
VSVGTHPTFENSPSGTVLTSPPDGSAVDRATDAARRVVDALLRTDRGNANLERVAEELNSIAGHLEEHAPAVAERLIDMWNGEGVTRHDPVTGPENALAPPVVLEGLSDGSVRGTVTLTIPYQGPPGHVHGGVSALLLDHVLGVANAWGGKAGMTAQLSTRYHRPTPLFEPLTLTGKLMSVDGRKITTAGDIRTADGQVCVSVEGLFVDKTVPRPR | not failed
VTDILREIGMIARALDSISNIEFKELSLTRGQYLYLVRVCENPGIIQEKIAELIKVDRTTAARAIKRLEEQGFIYRQEDASNKKIKRIYATEKGKNVYPIIVRENQHSNQVALQGLSEVEISQLADYLVRMRKNVSEDWEFVKKGNTRNY | not failed
VTIDNIQKTVAEYYKIKVADLLSKRRSRSVARPRQXAXALAKELTNHSLPEIGDAFGGRDHTTVLHACRKIEQLREESHDIKEDFSNLIRTLSS | not failed
